KD data for 1 substance are collected here from publication PMC8009664.

The experiment addresses calmodulin (CaM), recombinant bovine 1-149 (UniProt P62157). Briefly: ITC, peptide titrated into CaM. The conditions noted are these: reference: unphosphorylated H1H2; sites S648.

With “NHE1 (Na+/H+ exchanger 1, hNHE1) H1H2, 622-692 (from UniProt P19634) Akt-phosphorylated H1H2 (pS648)”, the KD result is “weaker; reference Kd,1 0.27 ± 0.07; Kd,2 560 ± 10”.
